One molecule from publication PMC7958410, “Hepatitis B virus X protein promotes vimentin expression via LIM and SH3 domain protein 1 to facilitate epithelial-mesenchymal transition and hepatocarcinogenesis” (Cell Communication and Signaling : CCS, 2021) can be followed below.

The assay addresses T1, His-vimentin (UniProt P08670 1-466).
T1 construct: vimentin; also called vimentin with His Tag; source: E. coli DH5α, purified by His-beads
The assay is described as follows: pull-down; GST fusion bound to glutathione-Sepharose beads incubated with purified His-tagged protein at 4 °C; washed 3 times with binding buffer; western blot. The conditions noted are these: both partners purified.

T1 sequence (P08670 whole entry): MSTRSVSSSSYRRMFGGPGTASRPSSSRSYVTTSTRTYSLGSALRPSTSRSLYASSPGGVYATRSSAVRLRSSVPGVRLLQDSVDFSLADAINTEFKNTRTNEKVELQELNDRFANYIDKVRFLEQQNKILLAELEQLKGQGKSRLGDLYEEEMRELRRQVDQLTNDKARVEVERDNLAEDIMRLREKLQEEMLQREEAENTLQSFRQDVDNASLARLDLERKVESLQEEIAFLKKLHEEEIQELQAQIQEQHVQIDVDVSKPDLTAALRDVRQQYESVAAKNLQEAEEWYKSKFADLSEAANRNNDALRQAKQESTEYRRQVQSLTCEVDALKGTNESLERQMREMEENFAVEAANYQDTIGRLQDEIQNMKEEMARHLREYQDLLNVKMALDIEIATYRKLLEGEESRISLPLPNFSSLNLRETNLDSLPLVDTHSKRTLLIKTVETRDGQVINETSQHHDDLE

B1: GST-LASP1 (natural protein, UniProt Q14847 1-261, looked up)
chain: MNPNCARCGKIVYPTEKVNCLDKFWHKACFHCETCKMTLNMKNYKGYEKKPYCNAHYPKQSFTMVADTPENLRLKQQSELQSQVRYKEEFEKNKGKGFSVVADTPELQRIKKTQDQISNIKYHEEFEKSRMGPSGGEGMEPERRDSQDGSSYRRPLEQQQPHHIPTSAPVYQQPQQQPVAQSYGGYKEPAAPVSIQRSAPGGGGKRYRAVYDYSAADEDEVSFQDGDTIVNVQQIDDGWMYGTVERTGDTGMLPANYVEAI
notes: LIM and SH3 domain protein 1 (LASP1); also called LASP1 with GST Tag
For the molecule B1, the binding result is listed as “binds”.
